One block for each molecule: values may come before it.
What was measured:
ST455B model = test: PDX tumor model (triple-negative, HER2 IHC 1+); assay type: in vivo, Athymic nude mice; conditions: Bs2-4T at 3 mg/kg
Description: (§1) All mouse experiments were carried out in compliance with the guidelines published by the Association for Assessment and Accreditation of Laboratory Animal Care (AAALAC) and protocols approved by the MedImmune Institutional Animal Care and Use Committee. Athymic nude mice between 4-8 weeks of age were used in the studies. In subcutaneous CBX models, animals were injected unilaterally on the right flank with tumor cells harvested from culture at a specific passage lot. In orthotopic CBX models, xenografts were established by injecting 5×10^6 cells per mouse (suspended in 50% matrigel) into the mammary fat pad on the right flank of animals. In PDX models, animals are implanted unilaterally on the flank with tumor fragments harvested from host animals each implanted from a specific passage lot. Pre-study tumor volumes were recorded for each experiment beginning approximately one week prior to its estimated start date. When tumors reach the appropriate tumor volume initiation (TVI) range (typically 150-250 mm^3), animals are randomized into treatment and control groups and dosing initiated. […] Animals were observed daily and tumor dimensions and body weights were measured and recorded twice weekly. Tumor volumes are calculated using the following formula: tumor volume=π÷6 (length×width^2). […]

ST996 model = test: PDX tumor model (triple-negative, HER2 IHC 1+); assay type: in vivo, Athymic nude mice; conditions: Bs2-2T at 3 mg/kg
Description: as §1

MDA-MB-453 = test: In vitro cytotoxic activity (Cell Titer Glo); assay type: cell-based, human; conditions: MDA-MB-453, 3 to 4 days; read-out: In vitro potency (EC50 in pM)
Description: A panel of human cancer cell lines expressing various levels of HER2 was used to evaluate the cytotoxic activity of bispecific ADC (Table 5 in Example 1). Briefly, cells were harvested, resuspended, and plated in serum-containing culture media at a density of 5,000 to 20,000 per well (depending on the growth kinetics of each cell line) of 96-well plates in a volume of 100 μL. A 2× concentration of each dose of antibody or ADC to be tested was prepared by diluting the test articles in culture medium. One hundred microliters of each test article was added to cells in triplicate such that the final dose curve ranged from 5 nM down to 0.08 pM in a stepwise 1:4 serial dilution series. The treated cells were incubated at 37° C./5% CO2 for 3 to 4 days, depending on the growth kinetics of each particular cell line. Cell viability was determined using Cell Titer Glo according to manufacturer's instructions. Data are analyzed by the GraphPad Prism software and presented as percent growth inhibition relative to the untreated control. EC50 values were determined using Sigmoidal non-linear regression analysis with GraphPad Prism software and were summarized in Table 6.

ST225 model = test: PDX tumor model (HER2-3+ breast cancer); assay type: in vivo, Athymic nude mice; conditions: Bs2-4T at 3 mg/kg
Description: as §1

human EGFR = target: T1, human EGFR (Homo sapiens, UniProt P00533); test: Capture ELISA binding specificity / species cross-reactivity; conditions: recombinant extracellular domain protein
T1 construct: recombinant extracellular domain proteins: human EGFR, human HER2, human HER3, human HER4, mouse Her2, or cynomolgus monkey Her2
From the text: (§2) To determine whether 39S retains the binding specificity and species cross-reactivity of its parental antibody AZ1.39.1, binding of 39S to the receptors of human ErbB family (EGFR, HER2, HER3, and HER4), the mouse Her2, and the cynomolgus monkey Her2 was examined by capture ELISA. Briefly, 96-well plates were coated with one of the following recombinant extracellular domain proteins: human EGFR, human HER2, human HER3, human HER4, mouse Her2, or cynomolgus monkey Her2. Antibody to be tested was prepared by diluting in a stepwise 1:3 serial dilution ranging from 50 nM down to 0.28 pM and then added to the wells in duplicate. After one hour of incubation, plates were washed, and goat anti-human IgG Fab HRP-conjugated secondary antibody was added to each well and the plates were incubated for 1 hour. The plates were washed and TMB substrate was added and incubated for 5-20 min to allow color development. The stop solution was added to the wells at the end of reaction and the plates were read at 450 nm. Binding signal (absorbance at 450 nm) was plotted against antibody concentration using Prism software.
(§3) Binding specificity and species cross-reactivity of bispecific antibodies to the recombinant extracellular domain protein of human EGFR, human HER2, human HER3, human HER4, mouse Her2, or cynomolgus monkey Her2 were determined by capture ELISA as described in Example 1.
(§4) To determine whether the conjugation of tubulysin 1508 alters antigen binding specificity and species cross-reactivity, binding activity of bispecific ADC to the recombinant extracellular domain protein of human EGFR, human HER2, human HER3, human HER4, mouse Her2, and cynomolgus monkey Her2 were confirmed by capture ELISA as described in Example 1.

cynomolgus monkey Her2 = test: as above; conditions: recombinant extracellular domain protein
From the text: as §2, §3, §4

human HER3 = target: T2, human HER3 (Homo sapiens, UniProt P21860); test: as above; conditions: recombinant extracellular domain protein
T2 construct: recombinant extracellular domain proteins: human EGFR, human HER2, human HER3, human HER4, mouse Her2, or cynomolgus monkey Her2
From the text: as §2, §3, §4

human HER4 = target: T3, human HER4 (Homo sapiens, UniProt Q15303); test: as above; conditions: recombinant extracellular domain protein
T3 construct: recombinant extracellular domain proteins: human EGFR, human HER2, human HER3, human HER4, mouse Her2, or cynomolgus monkey Her2
T3 sequence (Q15303 26-651 limits assumed): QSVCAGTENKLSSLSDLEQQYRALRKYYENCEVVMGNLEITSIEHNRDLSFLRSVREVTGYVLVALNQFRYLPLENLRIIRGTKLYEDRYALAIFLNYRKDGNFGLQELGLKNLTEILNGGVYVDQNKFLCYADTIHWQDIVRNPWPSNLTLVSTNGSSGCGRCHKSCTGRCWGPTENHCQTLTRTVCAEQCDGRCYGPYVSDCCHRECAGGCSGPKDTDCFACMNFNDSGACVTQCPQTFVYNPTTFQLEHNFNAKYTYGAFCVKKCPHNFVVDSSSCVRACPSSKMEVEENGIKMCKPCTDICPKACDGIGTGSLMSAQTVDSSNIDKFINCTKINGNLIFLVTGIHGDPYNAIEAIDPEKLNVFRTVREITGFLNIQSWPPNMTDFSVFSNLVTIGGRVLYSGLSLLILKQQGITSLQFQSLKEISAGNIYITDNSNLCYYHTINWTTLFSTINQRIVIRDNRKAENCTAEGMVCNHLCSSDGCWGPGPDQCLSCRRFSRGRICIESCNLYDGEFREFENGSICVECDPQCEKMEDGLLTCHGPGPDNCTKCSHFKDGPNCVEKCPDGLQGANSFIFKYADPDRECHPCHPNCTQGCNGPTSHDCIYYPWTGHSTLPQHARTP
From the text: as §2, §3, §4

HER2 = HER2 (Homo sapiens, UniProt P04626); test: as above; design: recombinant extracellular domain proteins: human EGFR, human HER2, human HER3, human HER4, mouse Her2, or cynomolgus monkey Her2; conditions: recombinant extracellular domain protein
From the text: as §2
(§5) Binding specificity and species cross-reactivity of bispecific antibodies to the recombinant extracellular domain protein of human EGFR, human HER2, human HER3, human HER4, mouse Her2, or cynomolgus monkey Her2 were determined by capture ELISA as described in Example 1. […]

mouse Her2 = mouse Her2 (Mus musculus, UniProt P70424); test: as above; design: recombinant extracellular domain proteins: human EGFR, human HER2, human HER3, human HER4, mouse Her2, or cynomolgus monkey Her2; conditions: recombinant extracellular domain protein
From the text: as §2, §5

mouse Her2, sequence (P70424 23-653 limits assumed): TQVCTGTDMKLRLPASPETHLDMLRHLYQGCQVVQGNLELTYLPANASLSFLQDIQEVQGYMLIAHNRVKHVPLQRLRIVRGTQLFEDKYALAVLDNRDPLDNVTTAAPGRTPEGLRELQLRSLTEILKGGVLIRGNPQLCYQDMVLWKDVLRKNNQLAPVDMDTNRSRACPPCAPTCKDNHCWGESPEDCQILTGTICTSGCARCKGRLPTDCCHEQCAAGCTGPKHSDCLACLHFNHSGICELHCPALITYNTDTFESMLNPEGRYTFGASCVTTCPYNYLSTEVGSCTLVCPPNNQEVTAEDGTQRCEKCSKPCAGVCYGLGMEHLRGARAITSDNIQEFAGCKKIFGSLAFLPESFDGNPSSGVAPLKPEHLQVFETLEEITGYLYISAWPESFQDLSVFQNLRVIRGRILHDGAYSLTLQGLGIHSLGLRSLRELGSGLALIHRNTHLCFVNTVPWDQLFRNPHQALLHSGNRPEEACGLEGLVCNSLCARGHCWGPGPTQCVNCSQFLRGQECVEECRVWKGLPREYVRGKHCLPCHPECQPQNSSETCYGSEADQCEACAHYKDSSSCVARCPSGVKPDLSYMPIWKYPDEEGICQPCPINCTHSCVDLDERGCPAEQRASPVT

Molecule: T-DM1 [reference compound]
in vivo activity (tumor growth) (ST455B model): no activity | in vivo activity (tumor growth) (ST996 model): no activity | EC50 (MDA-MB-453): 344 pM | in vivo activity (tumor growth) (ST225 model): tumor stasis

binding by capture ELISA (human EGFR): not | binding by capture ELISA (cynomolgus monkey Her2): can bind | binding by capture ELISA (human HER3): not | binding by capture ELISA (human HER4): not | binding by capture ELISA (HER2): can bind | binding by capture ELISA (mouse Her2): not
B1: 39S: lead optimized monoclonal antibody derived from the 1.39.1 antibody; VH SEQ ID NO:15, VL SEQ ID NO:16 (antibody, V domains shown)
VH: EVQLVESGGGLVKPGGSLRLSCAASGFTFSSYSMSWVRQAPGKGLEWVSSISSSSSYIYYADSVKGRFTISRDNAKNSLYLQMNSLRAEDTAVYYCARGGDAYNYYYFDYWGQGTLVTVSS
VL: DIVMTQTPLSLSVTPGQPASISCKSSQSVFFRSNNKNILAWYLQKPGQPPQLLIYWASSRESGVPDRFSGSGSGTDFTLKISRVEAEDVGVYYCQQYFGSPFTFGPGTKVDIK
